# Assay results reported in publication PMC6686035.
# What was measured:
# [1] = biological target: CsrA-His6 (Escherichia coli) (UniProt P69913); assay: RNase T1 footprinting; conditions: EMSA: 0.5 nM RNA, 10 mM MgCl2, 100 mM KCl, 32.5 ng yeast RNA, 20 mM DTT, 7.5% glycerol, 4 U SUPERasin, 37 C 30 min (pH not stated), footprint: 2 nM RNA
# [2] = biological target: CsrA-His6 (Escherichia coli) (UniProt P69913); assay: EMSA; conditions: EMSA: 0.5 nM RNA, 10 mM MgCl2, 100 mM KCl, 32.5 ng yeast RNA, 20 mM DTT, 7.5% glycerol, 4 U SUPERasin, 37 C 30 min (pH not stated), footprint: 2 nM RNA
# Chain of CsrA-His6 (Escherichia coli) (P69913 whole entry): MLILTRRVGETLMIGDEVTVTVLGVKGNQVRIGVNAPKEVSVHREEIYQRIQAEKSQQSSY
Substance,Kd [2] [nM],further results
GGGAUCAUCGUCAGAAUUGACUCCACGAUCACAUUUCGGACCGGCAGAAAGGAAUUAUUCUGCAAACAGUAAUUAUGGUGUUUUGAUUUAUCUUGCACCUCUCCACUUCUGGAUAUAAGGAUAUUAGGUAUGGCAACCGCUGGAAUGCUUCUCAAGGAUCC [ftnB footprint RNA (+1 to +152)],–,binding [1]: binds
bfr EMSA transcript,–,"Kd ([2]; 10 mM Mg2+, apparent KD, cooperative equation, single shift): 27 nM"
GGGUGGAAGCGAAGGAGUCAAAAAAUGAAAGGUGAUACUAAAGUUAUAAAUUAUCUCAACAAACUGUUGGGAAAUGAGCUUGU [bfr EMSA transcript],27,–
GAAGAUCAUCGUCAGAAUUGACUCCACGAUCACAUUUCGGACCGGCAGAAAGGAAUUAUUCUGCAAACAGUAAUUAUGGUGUUUUGAUUUAUCUUGCACCUCUCCACUUCUGGAUAUAAGGAUAUUAGGU [ftnB EMSA transcript],13,–
ftnB EMSA transcript,13,–
